{"source": "paper PMC9728202", "about": "“Molecular and Enzymatic Features of Homoserine Dehydrogenase from Bacillus subtilis” (Journal of Microbiology and Biotechnology, 2020)", "key": {"[1]": {"biological_target": "the molecule itself", "experiment": "SEC; Superdex-200 10/300 GL, 20 mM Tris-HCl pH 8.0, 0.1 mM TCEP, 400 mM NaCl, 0.5 mL/min; mass from a standard curve of standard proteins"}, "purified protein [2]": {"substrate": "N[C@@H](CCO)C(=O)O", "experiment": "purified protein", "assay_type": "biochemical, Bacillus subtilis", "conditions": "oxidation, 2 mM NADP+, pH 9.0, 400 mM NaCl, 25°C, apparent"}, "purified protein [3]": {"substrate": "NC(=O)c1ccc[n+]([C@@H]2O[C@H](COP(=O)(O)OP(=O)(O)OC[C@H]3O[C@@H](n4cnc5c(N)ncnc54)[C@H](OP(=O)(O)O)[C@@H]3O)[C@@H](O)[C@H]2O)c1", "experiment": "purified protein", "assay_type": "biochemical, Bacillus subtilis", "conditions": "oxidation, 100 mM L-homoserine, pH 9.0, 400 mM NaCl, 25°C, apparent, varied: cofactor"}}, "data": [{"protein": "Homoserine dehydrogenase from Bacillus subtilis (enzyme, Bacillus subtilis strain 168, UniProt P19582 1-433, looked up, Homoserine dehydrogenase (gene hom) of Bacillus subtilis strain 168, 433 amino acid residues; Calculated mass of the monomer printed as 48.3 kDa; Surmised: cloning through XhoI into pET26b adds Leu-Glu before the His6 tag; no removal of the tag is told; also called BsHSD; HSD; source: E. coli Rosetta2 (DE3), purified (HisTrapFF, HiPrep 26/10 Desalting, Superdex-200)) MKAIRVGLLGLGTVGSGVVKIIQDHQDKLMHQVGCPVTIKKVLVKDLEKKREVDLPKEVLTTEVYDVIDDPDVDVVIEVIGGVEQTKQYLVDALRSKKHVVTANKDLMAVYGSELLAEAKENGCDIYFEASVAGGIPILRTLEEGLSSDRITKMMGIVNGTTNFILTKMIKEKSPYEEVLKEAQDLGFAEADPTSDVEGLDAARKMAILARLGFSMNVDLEDVKVKGISQITDEDISFSKRLGYTMKLIGIAQRDGSKIEVSVQPTLLPDHHPLSAVHNEFNAVYVYGEAVGETMFYGPGAGSMPTATSVVSDLVAVMKNMRLGVTGNSFVGPQYEKNMKSPSDIYAQQFLRIHVKDEVGSFSKITSVFSERGVSFEKILQLPIKGHDELAEIVIVTHHTSEADFSDILQNLNDLEVVQEVKSTYRVEGNGWS", "values": [{"measurement": "stoichiometry N", "setting": "[1]", "result": 4}, {"measurement": "Km", "setting": "purified protein [2]", "result": "35.08 ± 2.91", "unit": "mM"}, {"measurement": "Vmax", "setting": "purified protein [2]", "result": 2.72, "unit": "µmol/min/mg"}, {"measurement": "kcat", "setting": "purified protein [2]", "result": "1.07 ± 0.02", "unit": "s⁻¹"}, {"measurement": "kcat/Km", "setting": "purified protein [2]", "result": "30 ± 10", "unit": "M⁻¹ s⁻¹"}, {"measurement": "Km", "setting": "purified protein [3]", "result": "0.39 ± 0.05", "unit": "mM"}, {"measurement": "Vmax", "setting": "purified protein [3]", "result": 2.79, "unit": "µmol/min/mg"}, {"measurement": "kcat", "setting": "purified protein [3]", "result": "1.1 ± 0.04", "unit": "s⁻¹"}, {"measurement": "kcat/Km", "setting": "purified protein [3]", "result": "2860 ± 910", "unit": "M⁻¹ s⁻¹"}]}]}
